Laboratory results published in PMC5812316 (Biophysics and Physicobiology, 2018).

Target: the molecule itself
Test: SEC

Protein | stoichiometry N
Photozipper variant E159K (domain or fragment) GSISSELTEAQKVERRERNREHAKRSRVRKKFLLESLQQSVNELNHKNNSLKESIREHLGPRGDSLIAQSSPEADTLLTDNPSKANRILEDPDYSLVKALQMAQQNFVITDASLPDNPIVYASRGFLTLTGYSLDQILGRNCRFLQGPETDPRAVDKIRNAITKGVDTSVCLLNYRQDGTTFWNLFFVAGLRDSKGNIVNYVGVQSKVSEDYAKLLVNEQNIEYKGVRTSNMLRRK | 2
Photozipper variant E159R/K164R (domain or fragment) GSISSELTEAQKVERRERNREHAKRSRVRKKFLLESLQQSVNELNHRNNSLRESIREHLGPRGDSLIAQSSPEADTLLTDNPSKANRILEDPDYSLVKALQMAQQNFVITDASLPDNPIVYASRGFLTLTGYSLDQILGRNCRFLQGPETDPRAVDKIRNAITKGVDTSVCLLNYRQDGTTFWNLFFVAGLRDSKGNIVNYVGVQSKVSEDYAKLLVNEQNIEYKGVRTSNMLRRK | 2
Photozipper variant K164E (domain or fragment) GSISSELTEAQKVERRERNREHAKRSRVRKKFLLESLQQSVNELNHENNSLEESIREHLGPRGDSLIAQSSPEADTLLTDNPSKANRILEDPDYSLVKALQMAQQNFVITDASLPDNPIVYASRGFLTLTGYSLDQILGRNCRFLQGPETDPRAVDKIRNAITKGVDTSVCLLNYRQDGTTFWNLFFVAGLRDSKGNIVNYVGVQSKVSEDYAKLLVNEQNIEYKGVRTSNMLRRK | 2
